Test results published in patent US20200199204A1.

Assays:
Assay in all cases: cell-based or functional assay
[1] = molecular target: HIV-1 Env of 0260.v5.c36 (HIV-1)
[2] = molecular target: HIV-1 Env of 3016.V5.c36 (HIV-1)
[3] = molecular target: HIV-1 Env of 6405.v4.c34 (HIV-1)
[4] = molecular target: HIV-1 Env of 6535.3 (HIV-1)
[5] = molecular target: HIV-1 Env of 96ZM651.02 (HIV-1)
[6] = molecular target: HIV-1 Env of AC10.29 (HIV-1)
[7] = molecular target: HIV-1 Env of BG505.w6m (HIV-1)
[8] = molecular target: HIV-1 Env of C1080.c3 (HIV-1)
[9] = molecular target: HIV-1 Env of CAAN.A2 (HIV-1)
[10] = molecular target: HIV-1 Env of CAP210.E8 (HIV-1)
[11] = molecular target: HIV-1 Env of CAP244.D3 (HIV-1)
[12] = molecular target: HIV-1 Env of CAP256.PI (HIV-1)
[13] = molecular target: HIV-1 Env of CAP256.SU (HIV-1)
[14] = molecular target: HIV-1 Env of CAP45.G3 (HIV-1)
[15] = molecular target: HIV-1 Env of CM244.ec1 (HIV-1)
[16] = molecular target: HIV-1 Env of CNE3 (HIV-1)
[17] = molecular target: HIV-1 Env of DU156.12 (HIV-1)
[18] = molecular target: HIV-1 Env of DU172.17 (HIV-1)
[19] = molecular target: HIV-1 Env of DU422.01 (HIV-1)
[20] = molecular target: HIV-1 Env of KER2008.12 (HIV-1)
[21] = molecular target: HIV-1 Env of KER2018.11 (HIV-1)
[22] = molecular target: HIV-1 Env of MB201 (HIV-1)
[23] = molecular target: HIV-1 Env of MB539.2B7 (HIV-1)
[24] = molecular target: HIV-1 Env of PVO.04 (HIV-1)
[25] = molecular target: HIV-1 Env of Q168.a2 (HIV-1)
[26] = molecular target: HIV-1 Env of Q23.17 (HIV-1)
[27] = molecular target: HIV-1 Env of Q259.d2.17 (HIV-1)
[28] = molecular target: HIV-1 Env of Q461.e2 (HIV-1)
[29] = molecular target: HIV-1 Env of Q769.d22 (HIV-1)
[30] = molecular target: HIV-1 Env of Q842.d12 (HIV-1)
[31] = molecular target: HIV-1 Env of QH0692.42 (HIV-1)
[32] = molecular target: HIV-1 Env of REJO.67 (HIV-1)
[33] = molecular target: HIV-1 Env of RHPA.7 (HIV-1)
[34] = molecular target: HIV-1 Env of RW020.2 (HIV-1)
[35] = molecular target: HIV-1 Env of SC422.8 (HIV-1)
[36] = molecular target: HIV-1 Env of TH976.17 (HIV-1)
[37] = molecular target: HIV-1 Env of THRO.18 (HIV-1)
[38] = molecular target: HIV-1 Env of TRJO.58 (HIV-1)
[39] = molecular target: HIV-1 Env of TRO.11 (HIV-1)
[40] = molecular target: HIV-1 Env of UG037.8 (HIV-1)
[41] = molecular target: HIV-1 Env of WITO.33 (HIV-1)
[42] = molecular target: HIV-1 Env of ZM109.4 (HIV-1)
[43] = molecular target: HIV-1 Env of ZM135.10a (HIV-1)
[44] = molecular target: HIV-1 Env of ZM197.7 (HIV-1)
[45] = molecular target: HIV-1 Env of ZM214.15 (HIV-1)
[46] = molecular target: HIV-1 Env of ZM233.6 (HIV-1)
[47] = molecular target: HIV-1 Env of ZM249.1 (HIV-1)
[48] = molecular target: HIV-1 Env of ZM53.12 (HIV-1)

Q: What does the source list for CAP256-VRC26.31 (antibody)?
A: IC50 (neutralization, TZM-bl) [1]: > 50 µg/mL; IC50 (neutralization, TZM-bl) [2]: > 50 µg/mL; IC50 (neutralization, TZM-bl) [3]: > 50 µg/mL; IC50 (neutralization, TZM-bl) [4]: > 50 µg/mL; IC50 (neutralization, TZM-bl) [5]: > 50 µg/mL; IC50 (neutralization, TZM-bl) [6]: > 50 µg/mL; IC50 (neutralization, TZM-bl) [7]: > 50 µg/mL; IC50 (neutralization, TZM-bl) [8]: 1.67 µg/mL; IC50 (neutralization, TZM-bl) [9]: > 50 µg/mL; IC50 (neutralization, TZM-bl) [10]: 0.003 µg/mL; IC50 (neutralization, TZM-bl) [11]: > 50 µg/mL; IC50 (neutralization, TZM-bl) [12]: > 50 µg/mL; IC50 (neutralization, TZM-bl) [13]: < 0.0006 µg/mL; IC50 (neutralization, TZM-bl) [14]: > 50 µg/mL; IC50 (neutralization, TZM-bl) [15]: > 50 µg/mL; IC50 (neutralization, TZM-bl) [16]: > 50 µg/mL; IC50 (neutralization, TZM-bl) [17]: 4.46 µg/mL; IC50 (neutralization, TZM-bl) [18]: > 50 µg/mL; IC50 (neutralization, TZM-bl) [19]: 1.66 µg/mL; IC50 (neutralization, TZM-bl) [20]: > 50 µg/mL; IC50 (neutralization, TZM-bl) [21]: 0.002 µg/mL; IC50 (neutralization, TZM-bl) [22]: > 50 µg/mL; IC50 (neutralization, TZM-bl) [23]: > 50 µg/mL; IC50 (neutralization, TZM-bl) [24]: > 50 µg/mL; IC50 (neutralization, TZM-bl) [25]: 4.16 µg/mL; IC50 (neutralization, TZM-bl) [26]: > 50 µg/mL; IC50 (neutralization, TZM-bl) [27]: 0.262 µg/mL; IC50 (neutralization, TZM-bl) [28]: > 50 µg/mL; IC50 (neutralization, TZM-bl) [29]: > 50 µg/mL; IC50 (neutralization, TZM-bl) [30]: > 50 µg/mL; IC50 (neutralization, TZM-bl) [31]: > 50 µg/mL; IC50 (neutralization, TZM-bl) [32]: > 50 µg/mL; IC50 (neutralization, TZM-bl) [33]: > 50 µg/mL; IC50 (neutralization, TZM-bl) [34]: > 50 µg/mL; IC50 (neutralization, TZM-bl) [35]: > 50 µg/mL; IC50 (neutralization, TZM-bl) [36]: > 50 µg/mL; IC50 (neutralization, TZM-bl) [37]: > 50 µg/mL; IC50 (neutralization, TZM-bl) [38]: > 50 µg/mL; IC50 (neutralization, TZM-bl) [39]: > 50 µg/mL; IC50 (neutralization, TZM-bl) [40]: > 50 µg/mL; IC50 (neutralization, TZM-bl) [41]: > 50 µg/mL; IC50 (neutralization, TZM-bl) [42]: > 50 µg/mL; IC50 (neutralization, TZM-bl) [43]: > 50 µg/mL; IC50 (neutralization, TZM-bl) [44]: 3.22 µg/mL; IC50 (neutralization, TZM-bl) [45]: > 50 µg/mL; IC50 (neutralization, TZM-bl) [46]: 0.74 µg/mL; IC50 (neutralization, TZM-bl) [47]: > 50 µg/mL; IC50 (neutralization, TZM-bl) [48]: < 0.0006 µg/mL
